In patent publication US20100076060A1:

Molecular target: OX40 (CD134) on mouse lymph node T cells (mouse) (UniProt P47741)
Experiment: cell-based or functional assay

interferon-gamma secretion (ELISA), after subtracting background of the negative control: 15 pg/mL
B1: OX40 agonistic antibody (OX86) (antibody, from another filing, V domains shown)
VH: QVQLKESGPGLVQPSQTLSLTCTVSGFSLTGYNLHWVRQPPGKGLEWMGRMRYDGDTYYNSVLKSRLSISRDTSKNQVFLKMNSLQTDDTAIYYCTRDGRGDSFDYWGQGVMVTVSS
VL: DIVMTQGALPNPVPSGESASITCRSSQSLVYKDGQTYLNWFLQRPGQSPQLLTYWMSTRASGVSDRFSGSGSGTYFTLKISRVRAEDAGVYYCQQVREYPFTFGSGTKLEIK
